Reference: patent US20240182563A1 (GENOME, published 2024)
Where two headings read alike, the source gives them in different places.

Legend:
Experiment in all cases: ELISA, plate coated with CNTN4-10xHis, anti-human Fc-HRP
[1] = molecular target: T1, human CNTN4-10xHis (human, UniProt Q8IWV2 19-1000)
T1 sequence: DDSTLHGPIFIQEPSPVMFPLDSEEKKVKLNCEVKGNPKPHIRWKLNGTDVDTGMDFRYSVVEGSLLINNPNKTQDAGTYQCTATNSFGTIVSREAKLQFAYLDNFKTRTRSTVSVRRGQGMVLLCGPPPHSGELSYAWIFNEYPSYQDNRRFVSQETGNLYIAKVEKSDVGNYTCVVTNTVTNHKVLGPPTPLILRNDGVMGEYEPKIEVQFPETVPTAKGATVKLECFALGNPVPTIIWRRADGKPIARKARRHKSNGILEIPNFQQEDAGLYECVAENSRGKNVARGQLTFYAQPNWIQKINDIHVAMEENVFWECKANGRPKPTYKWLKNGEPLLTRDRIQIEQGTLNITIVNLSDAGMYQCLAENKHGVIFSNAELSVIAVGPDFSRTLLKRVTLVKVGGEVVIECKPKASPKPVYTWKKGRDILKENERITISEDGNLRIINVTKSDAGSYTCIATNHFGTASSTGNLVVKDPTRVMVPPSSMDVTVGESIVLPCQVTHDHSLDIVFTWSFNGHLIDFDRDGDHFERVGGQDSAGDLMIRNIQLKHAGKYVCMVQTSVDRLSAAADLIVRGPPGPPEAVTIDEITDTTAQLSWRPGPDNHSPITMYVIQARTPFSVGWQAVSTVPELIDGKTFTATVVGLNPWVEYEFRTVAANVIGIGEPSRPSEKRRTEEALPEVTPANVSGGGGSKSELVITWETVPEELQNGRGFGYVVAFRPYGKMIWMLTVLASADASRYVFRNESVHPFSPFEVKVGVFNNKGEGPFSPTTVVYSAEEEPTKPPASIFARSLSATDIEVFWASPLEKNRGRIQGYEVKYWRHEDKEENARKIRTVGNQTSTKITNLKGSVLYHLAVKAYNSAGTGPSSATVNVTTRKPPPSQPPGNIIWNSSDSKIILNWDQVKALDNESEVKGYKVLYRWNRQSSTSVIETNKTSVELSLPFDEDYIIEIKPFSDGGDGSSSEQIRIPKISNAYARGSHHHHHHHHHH
Description: (§1) The LAH2, L1H2, and L2H2 antibodies prepared in Example 3.1 were subjected to an ELISA test together with A-01. An ELISA plate was coated with 200 ng of antigens (human CNTN4-10xHis or mouse CNTN4-10xHis). For antibody binding, antibodies were serially diluted from a maximum of 1 μM to 0.0001 nM, thereby binding to the antigen. Anti-human Fc-HRP was used as a secondary antibody for antibody detection. Color was developed using ABTS, which is a color developing reagent, and the absorbance at 405 nm was measured.

[2] = molecular target: T1, human CNTN4-10xHis; remark: listed apart in the source
Description: as §1, with “An ELISA test was performed on A-01” for “The LAH2, L1H2, and L2H2 antibodies”, “2.1.” for “3.1 were subjected to an ELISA test together with A-01.”, “A-01 was” for “antibodies were”

[3] = molecular target: T2, mouse CNTN4-10xHis (mouse, UniProt Q69Z26 19-1000)
T2 sequence: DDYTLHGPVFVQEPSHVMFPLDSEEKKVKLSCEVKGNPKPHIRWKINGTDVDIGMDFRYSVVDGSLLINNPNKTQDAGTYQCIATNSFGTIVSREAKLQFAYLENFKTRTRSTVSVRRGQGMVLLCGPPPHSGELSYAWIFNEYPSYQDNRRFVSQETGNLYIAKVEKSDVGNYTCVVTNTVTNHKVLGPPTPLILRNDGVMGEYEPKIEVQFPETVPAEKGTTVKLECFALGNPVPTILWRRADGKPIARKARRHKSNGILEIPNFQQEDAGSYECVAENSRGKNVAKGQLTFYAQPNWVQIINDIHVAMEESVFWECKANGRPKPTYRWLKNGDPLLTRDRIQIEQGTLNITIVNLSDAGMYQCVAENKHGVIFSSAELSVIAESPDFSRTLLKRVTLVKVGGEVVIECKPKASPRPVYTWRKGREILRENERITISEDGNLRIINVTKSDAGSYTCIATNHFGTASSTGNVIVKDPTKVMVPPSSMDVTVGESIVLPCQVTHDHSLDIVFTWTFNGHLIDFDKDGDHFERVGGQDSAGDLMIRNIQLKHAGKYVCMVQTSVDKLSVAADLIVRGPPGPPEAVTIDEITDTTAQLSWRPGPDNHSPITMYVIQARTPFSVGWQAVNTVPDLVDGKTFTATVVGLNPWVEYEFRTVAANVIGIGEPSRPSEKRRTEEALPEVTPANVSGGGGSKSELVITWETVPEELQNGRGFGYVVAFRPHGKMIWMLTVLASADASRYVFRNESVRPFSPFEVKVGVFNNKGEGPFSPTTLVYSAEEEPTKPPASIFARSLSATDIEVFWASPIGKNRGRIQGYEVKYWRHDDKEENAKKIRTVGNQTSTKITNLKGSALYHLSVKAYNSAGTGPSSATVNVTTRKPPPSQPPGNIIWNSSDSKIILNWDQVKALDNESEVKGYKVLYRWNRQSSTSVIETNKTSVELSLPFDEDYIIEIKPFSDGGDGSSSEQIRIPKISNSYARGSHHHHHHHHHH
Description: as §1, with “An ELISA test was performed on A-01” for “The LAH2, L1H2, and L2H2 antibodies”, “2.1.” for “3.1 were subjected to an ELISA test together with A-01.”, “A-01 was” for “antibodies were”

Measured: EC50

B1: anti-CNTN4 129 chimeric IgG4-S228P (antibody, V domains shown)
VH: AVTLDESEGGLQTPGGALSLVCKASGFTFSSFNMFWVRQAPGKGLEYVAEISGGGGSTWYAPAVKGRATISRDNGQSTVRLQLNNLRAEDTGTYYCAKSADTWSYGAATIDAWGHGTEVIVSS
VL: ALTQPSSVSANLGETVKITCSGSSGSYGWYQQKSPGSAPVTLIYDNTNRPSDIPSRFSGSGSGSTGTLTITGVRAEDEAVYYCGGYDGSTDVFGAGTTLTVL
notes: chicken-human chimeric IgG4-S228P made from S129, kappa light chain constant region (Kappa select); also called A-01; LAHA
0.011 nM: all assays above
